According to publication PMC4446614:

Target: His-sumo-TBC1D15 (shark TBC1D15 from Chiloscyllium plagiosum) (Chiloscyllium plagiosum)

release of inorganic phosphate (Pi) by GTP hydrolysis, A360 read every 5 min (EnzChek Phosphate Assay Kit; Rab7 700 nM, TBC1D15 300 nM, 22 °C); Rab or TBC1D15 alone as the blank: 0.4 A360
Substance: MBP-Rab7a-WT (from UniProt P51149 1-207) (natural protein)
